Target: the molecule itself
Test: non-reducing SDS-PAGE with immunoblot; total cell lysates (1% IGEPAL, 150 mM NaCl, 50 mM Tris-HCl pH 7.9, no reducing agent) in sample buffer without β-ME; cells treated with H2O2 (50-200 uM), T-hydro (1-3 uM), diamide (0.1-1 mM), 10% FBS or expressing H-ras V12

| Protein | stoichiometry N |
| --- | --- |
| Flag-tagged PHD3 (natural protein, human, UniProt Q9H6Z9 1-239, looked up, PHD3, human; Flag-tagged lentiviral vector from William Kaelin; also called Flag-PHD3; source: U2OS stably expressing (lentiviral vector), in lysate) MPLGHIMRLDLEKIALEYIVPCLHEVGFCYLDNFLGEVVGDCVLERVKQLHCTGALRDGQLAGPRAGVSKRHLRGDQITWIGGNEEGCEAISFLLSLIDRLVLYCGSRLGKYYVKERSKAMVACYPGNGTGYVRHVDNPNGDGRCITCIYYLNKNWDAKLHGGILRIFPEGKSFIADVEPIFDRLLFFWSDRRNPHEVQPSYATRYAMTVWYFDAEERAEAKKKFRNLTRKTESALTED | 2 |
| PHD3, endogenous (natural protein, human (endogenous in U2OS), UniProt Q9H6Z9 1-239, looked up, PHD3, endogenous in U2OS cells; source: endogenous, U2OS lysate) MPLGHIMRLDLEKIALEYIVPCLHEVGFCYLDNFLGEVVGDCVLERVKQLHCTGALRDGQLAGPRAGVSKRHLRGDQITWIGGNEEGCEAISFLLSLIDRLVLYCGSRLGKYYVKERSKAMVACYPGNGTGYVRHVDNPNGDGRCITCIYYLNKNWDAKLHGGILRIFPEGKSFIADVEPIFDRLLFFWSDRRNPHEVQPSYATRYAMTVWYFDAEERAEAKKKFRNLTRKTESALTED | 2 |
